Where no end group is shown, it is not given here.
assay: First-order nonenzymatic deamidation of pentapeptides in Tris buffer; format: physicochemical; settings: pH 7.4, 37.0° C., 0.15 M Tris HCl; Asn pentapeptides
Procedure, shortened: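 Pentapeptides containing Asn or Gln in varied flanking sequences incubated at 37° C., pH 7.4, 0.15 M Tris buffer; first-order deamidation rates measured. Some Asn values estimated from remaining data; many Gln values derived from surface fitting rather than measured.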

Substance | First-Order Deamidation Halftimes of GlyXxxAsnYyyGly [days]
GlyGlyAsnMetGly (GGNMG; printed: GlyGlyAsnMetGly) | 50.4
GlyLeuAsnHisGly (GLNHG; printed: GlyLeuAsnHisGly) | 10.7
GlyThrAsnPheGly (GTNFG; printed: GlyThrAsnPheGly) | 76.4
GlyHisAsnAmCysGly | 33.8
GlyValAsnSerGly (GVNSG; printed: GlyValAsnSerGly) | 18.2
GlyMetAsnCysGly (GMNCG; printed: GlyMetAsnCysGly) | 49.6
GlyCysAsnProGly (GCNPG; printed: GlyCysAsnProGly) | 1550
GlyLysAsnHisGly (GKNHG; printed: GlyLysAsnHisGly) | 10.5
GlyAlaAsnGluGly (GANEG; printed: GlyAlaAsnGluGly) | 74.1
GlyCysAsnThrGly (GCNTG; printed: GlyCysAsnThrGly) | 48.7
GlyLeuAsnTyrGly (GLNYG; printed: GlyLeuAsnTyrGly) | 75.7
GlyIleAsnSerGly (GINSG; printed: GlyIleAsnSerGly) | 14.5
GlyGlyAsnSerGly (GGNSG; printed: GlyGlyAsnSerGly) | 11.8
GlyAlaAsnMetGly (GANMG; printed: GlyAlaAsnMetGly) | 59.2
GlyAmCysAsnTrpGly (CNWG; not fully specified (N-terminus); printed as GlyAmCysAsnTrpGly) | 81.3
GlySerAsnValGly (GSNVG; printed: GlySerAsnValGly) | 233
GlyThrAsnAlaGly (GTNAG; printed: GlyThrAsnAlaGly) | 24.6
GlyGlyAsnHisGly (GGNHG; printed: GlyGlyAsnHisGly) | 9.2
GlyCysAsnIleGly (GCNIG; printed: GlyCysAsnIleGly) | 304
GlyAspAsnSerGly (GDNSG; printed: GlyAspAsnSerGly) | 17.0
GlyMetAsnGlyGly (GMNGG; printed: GlyMetAsnGlyGly) | 1.04
GlyCysAsnHisGly (GCNHG; printed: GlyCysAsnHisGly) | 10.8
GlyAmCysAsnGlyGly (CNGG; not fully specified (N-terminus); printed as GlyAmCysAsnGlyGly) | 1.14
GlyProAsnSerGly (GPNSG; printed: GlyProAsnSerGly) | 18.9

same assay, conditions: pH 7.4, 37.0 ° C., 0.15 M Tris HCl; Gln pentapeptides; 52 values measured, rest derived from surface fitting

Substance | First-Order Deamidation Halftimes of GlyXxxGlnYyyGly [days]
GlyHisGlnArgGly (GHQRG; printed: GlyHisGlnArgGly) | 4500
GlyIleGlnTrpGly (GIQWG; printed: GlyIleGlnTrpGly) | 16000
GlyIleGlnPheGly (GIQFG; printed: GlyIleGlnPheGly) | 8100
GlyHisGlnGlyGly (GHQGG; printed: GlyHisGlnGlyGly) | 850
GlyTyrGlnTyrGly (GYQYG; printed: GlyTyrGlnTyrGly) | 14000
GlyGluGlnAlaGly (GEQAG; printed: GlyGluGlnAlaGly) | 7100
GlyAspGlnTrpGly (GDQWG; printed: GlyAspGlnTrpGly) | 17000
GlyValGlnGluGly (GVQEG; printed: GlyValGlnGluGly) | 6500
GlyIleGlnGluGly (GIQEG; printed: GlyIleGlnGluGly) | 7700
GlyTyrGlnArgGly (GYQRG; printed: GlyTyrGlnArgGly) | 8100
GlyGlyGlnAlaGly (GGQAG; printed: GlyGlyGlnAlaGly) | 5900
GlyTrpGlnPheGly (GWQFG; printed: GlyTrpGlnPheGly) | 8600
GlyPheGlnCysGly (GFQCG; printed: GlyPheGlnCysGly) | 2000
GlyIleGlnLeuGly (GIQLG; printed: GlyIleGlnLeuGly) | 6300
GlyIleGlnLysGly (GIQKG; printed: GlyIleGlnLysGly) | 6100
GlySerGlnSerGly (GSQSG; printed: GlySerGlnSerGly) | 6000
GlyGluGlnSerGly (GEQSG; printed: GlyGluGlnSerGly) | 6100
GlyTyrGlnTrpGly (GYQWG; printed: GlyTyrGlnTrpGly) | 18000
GlyCysGlnGlyGly (GCQGG; printed: GlyCysGlnGlyGly) | 560
GlyHisGlnValGly (GHQVG; printed: GlyHisGlnValGly) | 6800
GlyThrGlnProGly (GTQPG; printed: GlyThrGlnProGly) | 7500
GlyGlyGlnThrGly (GGQTG; printed: GlyGlyGlnThrGly) | 5200
GlyTyrGlnLysGly (GYQKG; printed: GlyTyrGlnLysGly) | 7500
GlyValGlnTrpGly (GVQWG; printed: GlyValGlnTrpGly) | 12000
GlyProGlnValGly (GPQVG; printed: GlyProGlnValGly) | 6200
GlyProGlnGluGly (GPQEG; printed: GlyProGlnGluGly) | 6800
GlyAlaGlnTrpGly (GAQWG; printed: GlyAlaGlnTrpGly) | 14000
GlyThrGlnLysGly (GTQKG; printed: GlyThrGlnLysGly) | 4800
GlyHisGlnLeuGly (GHQLG; printed: GlyHisGlnLeuGly) | 6600

Source: US20050118674A1, “Engineering of Controlled Deamidation Rates in Peptides, Proteins, and Similar Structures” (priority 2003, published 2005)
